# According to PMC6230950:
# B1: mouse CD64 (FcγRI) (receptor)
# chain: EVVNATKAVITLQPPWVSIFQKENVTLWCEGPHLPGDSSTQWFINGTAVQISTPSYSIPEASFQDSGEYRCQIGSSMPSDPVQLQIHNDWLLLQASRRVLTEGEPLALRCHGWKNKLVYNVVFYRNGKSFQFSSDSEVAILKTNLSHSGIYHCSGTGRHRYTSAGVSITVKELFTTPVLRASVSSPFPEGSLVTLNCETNLLLQRPGLQLHFSFYVGSKILEYRNTSSEYHIARAEREDAGFYWCEVATEDSSVLKRSPELELQVLGPQSSAP
# Experiments:
# [1] = biological target: human TB‐PIGS:ΔXF (Ag85B fused to a truncated human γ1 chain and the IgM μ tailpiece), produced in g (M. tuberculosis | human | not stated) (UniProt P9WQP1); test: SPR; Biacore X100, HBS-EP+; TB-PIGS captured on protein A coupled to a CM5 chip; FcγR as analyte, 40 μL/min; affinity of one FcγR for a single arm
# [2] = biological target: human TB‐PIGS (Ag85B fused to a truncated human γ1 chain and the IgM μ tailpiece), produced in wild‐type N. benthamiana (M. tuberculosis | human | not stated) (UniProt P9WQP1); test: native gel or EMSA
# [3] = biological target: murine TB‐PIGS (Ag85B fused to a truncated mouse γ2a chain and the IgM μ tailpiece), produced in wil (M. tuberculosis | mouse | not stated) (UniProt P9WQP1); test: native gel or EMSA
# [4] = biological target: Human TB-PIGS produced in glyco-engineered ΔXF Nicotiana benthamiana (Mycobacterium tuberculosis | human | not stated) (UniProt P9WQP1); test: SPR; Biacore X100; protein A on a CM5 chip, IgG or TB-PIGS captured; human CD32a as analyte, 4000 nM to 125 nM in 2-fold dilutions; HBS-EP+; 40 uL/min, contact 90 s; steady-state affinity analysis
# [5] = biological target: Human TB-PIGS produced in wild-type Nicotiana benthamiana (Ag85B - truncated human γ1 chain - IgM tailpiece) (Mycobacterium tuberculosis | human | not stated) (UniProt P9WQP1); test: as above
# [6] = biological target: Human TB-PIGS produced in wild-type Nicotiana benthamiana (Ag85B - truncated human γ1 chain - IgM tailpiece) (Mycobacterium tuberculosis | human | not stated) (UniProt P9WQP1); test: SPR; Biacore X100; protein A on a CM5 chip, IgG or TB-PIGS captured; five-six concentrations of human CD16a as analyte; HBS-EP+; 40 uL/min, contact 90 s, dissociation 300 s; two-state binding interaction model
# [7] = biological target: Murine TB-PIGS produced in wild-type Nicotiana benthamiana (Ag85B - truncated mouse γ2a chain - IgM tailpiece) (Mycobacterium tuberculosis | mouse | not stated) (UniProt P9WQP1); test: SPR; Biacore X100; protein A amine-coupled on a CM5 chip, IgG or TB-PIGS captured on it; CD64 (human or mouse) as analyte, 240 nM down to 1.875 nM in 1:2 dilutions; HBS-EP+; 40 uL/min, contact 135 s, dissociation 600 s; 1:1 model, but for human TB-PIGS from wild-type plants the 'Heterogeneous antibody with aglycosylation' model (two sets of values)
# [8] = biological target: Murine TB-PIGS produced in glyco-engineered ΔXF Nicotiana benthamiana (Mycobacterium tuberculosis | mouse | not stated) (UniProt P9WQP1); test: as above
molecule,measurement,setting,value
human CD64 (FcγRI) (from UniProt P12314 16-292) (receptor),Kd,[1],0.41 nM
"human TB‐PIGS (Ag85B fused to a truncated human γ1 chain and the IgM μ tailpiece), produced in wild‐type N. benthamiana (from UniProt P9WQP1 41-325) (Fc fusion)",percent of the sample as polymers,[2],35 to 60%
"murine TB‐PIGS (Ag85B fused to a truncated mouse γ2a chain and the IgM μ tailpiece), produced in wil (from UniProt P9WQP1 41-325) (Fc fusion)",percent of the sample as polymers,[3],5 to 20%
human CD32a (FcγRIIa) (from UniProt P12318 34-217) (receptor),Kd,[4],2160 nM
same,Kd,[5],4210 nM
human CD16a (FcγRIIIa) (from UniProt P08637 17-208) (receptor),Kd,[1],19.7 nM
same,Kd,[6],279 nM
B1,Kd,[7],50 nM
same,koff,[7],0.0248 s⁻¹
same,kon,[7],500000 M⁻¹ s⁻¹
same,Kd,[8],16.8 nM
same,koff,[8],0.0231 s⁻¹
same,kon,[8],1.38e+06 M⁻¹ s⁻¹
